# Experimental data from paper PMC8217473 (2021).
# Changes are numbered by the printed parent chain. Where two headings read alike, the source gives them in different places.
# B1: 3N39 mutant sACE2-His (domain or fragment)
# chain: QSTIEEQVETFLDNFNHKAEDLFYQSSLASWNYNTNITEENVQNMNIAGDKWSAFLKEQSTFAQMYPLQEIQHLTVKLQLQALQQNGSSVLSEDKSKRLNTILNTMSTIYSTGKVCNPDNPQECLLLEPGLNEIMANSLDYNERLWAWESWRSEVGKQLRPLYEEYVVLKNEMARANHYEDYGDYWRGDYEVNGVDGYDYSRGQLIEDVEHTFEEIKPLYEHLHAYVRAKLMNAYPSYISPIGCLPAHLLGDMWGRFWTNLYSLTVPFGQKPNIDVTDAMVDQAWDAQRIFKEAEKFFVSVGLPNMTQGFWENSMLTDPGNVQKAVCHPTAWDLGKGDFRILMCTKVTMDDFLTAHHEMGHIQYDMAYAAQPFLLRNGANEGFHEAVGEIMSLSAATPKHLKSIGLLSPDFQEDNETEINFLLKQALTIVGTLPFTYMLEKWRWMVFKGEIPKDQWMKKWWEMKREIVGVVEPVPHDETYCDPASLFHVSNDYSFIRYYTRTLYQFQFQEALCQAAKHEGPLHKCDISNSTEAGQKLFNMLRLGKSEPWTLALENVVGAKNMNVRPLLNYFEPLFTWLKDQNKNSFVGWSTDWSPYAD
# B2: 3N39v2 mutant sACE2-His (domain or fragment)
# chain: B1 chain with E9K, I47N, H73N
# What was measured:
# [1] = target: T1, RBD-Fc (receptor binding domain of SARS-CoV-2 spike fused to Fc) (SARS-CoV-2, UniProt P0DTC2); test: SPR
# [2] = target: T1, RBD-Fc (receptor binding domain of …); test: SPR; remark: listed apart in the source
Binder,Kd [1],Kd [2]
B1,0.29 nM,0.32 nM
B2,,0.54 nM
